Source: the DeepSol protein solubility set

Experiment: soluble on expression in E. coli; label from the status in PepcDB or PDB records

Sequence	soluble on expression in E. coli
LTETGALFKLEVALLKDKVTLTLDTTGPSLFKRGYRIEKGGAPLKENMAAALVMLTNWRKDRPFYDPVCGSGTICIEAALIGHNIAPGFNRSFTCETWDWVDPAIFEKVRNEAEAKADYDVELDICGSDVDGRMIEVARANAEEVGLGDSITFKQLALKDFTTEKEYGVMVANPPYGERLGEEESVRRLYKEMGHVFRPLTTWSKYILTSDLAFEEYYGAKATKKRKLYNGALRTDLFQYWGTRPPRKPRED	not soluble
LTTRDFDRTGRPLRFTELGFGSSPLGNLYRAISEEEAQALLERAWAGGIRYFDTAPLYGYGLAEERLGRFLAGHPRSDYVLSTKVGRLLRPVEPGEARDGLGKFFEVPERKERFDYGYDGVMRSLEASLDRLGLDRVDVLYAHDLDLFTHGSQEALEARLAEFMAGGYRALVELRDQGVISAFGAGVNEWQPCQWLAERGEFDLFLLAGRYTLLEQEALESFLPLAEERGIGIVIGGPYNSGVLATGPKPGSFYDYRLAPQAVLDRVAQIHTICERWGVRMFEAAFQFPLRHPAVLSVIPGPQSVGEVMENRIAADAELPPGLWEDLKVAGLLRPD	soluble
LVGDFERELGRLLSPFELEDLQKTLQEDQTDPDIVRAALREAVFNGKTSWNYINAILRNWRREGLTTLRQIEERKQAREDNQMKDLAISDDFKNAMNLWE	not soluble
LVKVKREIIRMDHPAIRPEAGRAPAVDAATLRRWLAQGRDDQGRELVMLDTRNAFEVEVGTFRGALDWRIERFTQFPQAVRDNQAALAGKTVVSFCTGGIRCEKAAIYMAEAGIEHVYQLEGGILKYFEETDGAGFDGACFVFDERVALDAALAPQ	not soluble
LVPRGSAMGSGNDTSRGANKTVVVTTILESPYVMMKKNHEMLEGNERYEGYCVDLAAEIAKHCGFKYKLTIVGDGKYGARDADTKIWNGMVGELVYGKADIAIAPLTITLVREEVIDFSKPFMSLGISIMIKKGTPIESAEDLSKQTEIAYGTLDSGSTKEFFRRSKIAVFDKMWTYMRSAEPSVFVRTTAEGVARVRKSKGKYAYLLESTMNEYIEQRKPCDTMKVGGNLDSKGYGIATPKGSSLGNAVNLAVLKLNEQGLLDKLKNKWWYDKGECGS	soluble
LYKKAGLMVDKKLVVVFGGTGAQGGSVARTLLEDGTFKVRVVTRNPRKKAAKELRLQGAEVVQGDQDDQVIMELALNGAYATFIVTNYWESCSQEQEVKQGKLLADLARRLGLHYVVYSGLENIKKLTAGRLAAAHFDGKGEVEEYFRDIGVPMTSVRLPCYFENLLSHFLPQKAPDGKSYLLSLPTGDVPMDGMSVSDLGPVVLSLLKMPEKYVGQNIGLSTCRHTAEEYAALLTKHTRKVVHDAKMTPEDYEKLGFPGARDLANMFRFYALRPDRDIELTLRLNPKALTLDQWLEQHKGDFNLL	soluble
MAAAAAAAGGAALAVSTGLETATLQKLALRRKKVLGAEEMELYELAQAAGAAIDPDVFKILVDLLNLNVAPLAVFQMLKSMCAGQRLASDPQDSVPISLSTSTSETRGRNRGGPILGNVTISAERGSRERPIQRMPRQPSATRLPKVGGSGKSNSRSSP	soluble
MAAAAARSTSPFEIRHAVTIAAPPEAVFDYVTNPKSWPEWLPSSHALECDDRPMGFGDTFHEHWSTRSGPVDLDWLVIACDRPLLWIGLTQTSFMGPVVVHYTFEAVDDGTRFTRILRNPARPKPPTAEMIERMSTEAELGLGNIKRIVERR	not soluble
MAAADIARQLGEDCRTVPLAGHVGFDSLPDQLVNKSVSQGFCFNILCVGETGLGKSTLMDTLFNTKFEGEPATHTQPGVQLQSNTYDLQESNVGLKLTIVSTVGFGDQINKEDSYKPIVEFIDAQFEAYLQEELKIRRVLHSYHDSRIHVCLYFIAPTGHSLKSLDLVTMKKLDSKVNIIPVIAKSDAISKSELAKFKIKITSELVSNGVQIYQFPTDDESVSEINGTMNAHLPFAVCSTEEVKIGNKMMRARQYPWGTVQVENEAHCDFVKLREMLIRVNMEDLREQTHARHYELYRRCKLEEMGFKDTDPDSKPFSLQETYEAKRNEFLGELQKKEEEMRQMFVQRVKEKEAELKEAEKELHEKFDRLKKLHQEEKKKLEDKKKCLDEEMNAFKQRKAAAELLQSQGSQAGGSQTLKRDKEKKNNPWLCIE	soluble
MAAAGEEYSSDKIEERSLAAIDSMIDPDISGPMRHIVVKAIHAAGDFAIAPLIRYSDGFFKSMLAKLKEGCTIICDSEMVRAGIYSRPVLERNRVVCYLNDVRSKEMADVNGITRSAAGIRIAMQDHRNSVIVIGNAPTALLEAMRMIEENGWYDIPIVGIPVGFINASKAKEGLVSSHIEYISVEGHRGGSPIAASIVNGFGRFLA	soluble
MAAFEAHDYALAERQAQALLAHPATASGARFMLGYVYAFMDRFDEARASFQALQQQAQKSGDHTAEHRALHQVGMVERMAGNWDAARRCFLEERELLASLPEDPLAASANAYEVATVALHFGDLAGARQEYEKSLVYAQQADDQVAIACAFRGLGDLAQQEKNLLEAQQHWLRARDIFAELEDSEAVNELMTRLNGLEHHHHHH	not soluble
MAAISFLGDLIQTISDRGRDLIGLARSDLARTASAADLARFCEDLISRRGEASGVALARLILDRYAAFPLEDRLAFLELIATEFGADHDAVDAAIAAYRADPTRARLGLLHVAAEPRSQELIRRLNLARGGTLALVRMREDLFTLRKRLKDREAAPETIDATVSLDSDFEHLFASWFNRGFLVLRPIDWSTPADILEKIIRYEAVHEIADWDELRRRIQPTDRRCFAFFHPALLDEPLIFVEVALTNAIAPAIQPILADGREPVPARSATTAIFYSISNCQKGLAGVTFGNFLIKQVVEDLAREIPSLKTFVTLSPVPGFRTWLDRERGAGAPQGLTREDVEALRLLDTEDWRSDKTKCEAVRRAMLPAAAAYFLRAKNEKGRPLDPVARFHLGNGARLERMNFLGDTSKKGLKQSYGLMVNYLYDLSAIEKNHETYVNLGTVATSSAVSRELRSNLPPPRAVVLAEAGLEHHHHHH	not soluble
MAAKLQKWRNLAGRLDLMNRSGAVSTRRFLHEGPDTVEELLERHLAKKEKPIIDHDEAEFLNRRRLTSTRREALSLYRDILRATRFFTWIDSRGNLWRDVLRENARKEFEAARFETDPEVITRLLIGGSDAVSSALDKLAEKQREMIEKQRRGDQR	soluble
MAAKPILYSSWSSGCSSRVRTALALKKIDYEYQPVNLLNKQKEQEFHGNNPAEKVPILKINGLTLTESMAIIEYLDEIYPDPPLLPKEPELKARARAIAFHIASNIQPLQNKPIYLMLNEKEPGYGDFWCQHFISKGFKALEELLQMHSGDFCVGNQISIADICLPSIVYNAIEKYHVDMTPYPIITRISNKLAELPEFQVAHPNNQPDAPKN	not soluble
MAANRVAMEEDITESVTLMVDSVSSSPMTPKTVTVKEDETHHPYAFHVSGPRNVASPNWRDLINSSWKDPNYKRTVMACFIQAAYLLELDRQENRNEQNALAPKWWIPFKYKLSQTLIDERDGSIFGAVLEWDRAAAMADLVVIRPSGAPKAVLALRGTILKSLTMRRDIEDDLRFLAWESLKGSVRFNVALEALQSVATRYGSSNVCVVGHSLGAGFALQVGKSLAKEGLFVDAHLFNPPSISVAMSLRNISEKAGVAWKRLMSMLPPKHEPLIQNSNEGQVSPSNVSSGFRNWVPSFYGSNQKPTVDLRKWVPHLYVNDSDYICCHYTDQDGVAEKREMNNKENNSPVVNTNFQAAAKLFVMSKGKQKFHEAHGLEQWWSDNLELQSAIHSSRLISQQLKSLYSIK	soluble
MAAPGPALCLFDVDGTLTAPRQKITKEMDDFLQKLRQKIKIGVVGGSDFEKVQEQLGNDVVEKYDYVFPENGLVAYKDGKLLCRQNIQSHLGEALIQDLINYCLSYIAKIKLPKKRGTFIEFRNGMLNVSPIGRSCSQEERIEFYELDKKENIRQKFVADLRKEFAGKGLTFSIGGQISFDVFPDGWDKRYCLRHVENDGYKTIYFFGDKTMPGGNDHEIFTDPRTMGYSVTAPEDTRRICELLFS	soluble
MAARKLIARINPTNSALFVCDLQEKFASNIKYFPEIITTSRRLIDAARILSIPTIVTEQYPKGLGHTVPTLKEGLAENTPIFDKTKFSMCIPPTEDTLKKVQNVILVGIEAHVCVLQTTYDLLERGLNVHVVVDAVSSRSHTDRHFAFKQMEQAGAILTTSEATILGLVGGSDHPKFKEVQKLILTSAPDTGLVPLSKL	soluble
MAAVVALSLRRRLPATTLGGACLQASRGAQTAAATAPRIKKFAIYRWDPDKAGDKPHMQTYKVDLNKCGPMVLDALIKIKNEVDSTLTFRRSCREGICGSCAMNINGGNTLACTRRIDTNLNKVSKIYPLPHMYVIKDLVPDLSNFYAQYKSIEPYLKKKDESQEGKQQYLQSIEEREKLDGLYECILCACCSTSCPSYWWNGDKYLGPAVLMQAYRWMIDSRDDFTEERLAKLQDPFSLYRCHTIMNCTRTCPKGLNPGKAIAEIKKMMATYKEKKASV	not soluble
MAAYSYRPGPGAGPGPAAGAALPDQSFLWNVFQRVDKDRSGVISDTELQQALSNGTWTPFNPVTVRSIISMFDRENKAGVNFSEFTGVWKYITDWQNVFRTYDRDNSGMIDKNELKQALSGFGYRLSDQFHDILIRKFDRQGRGQIAFDDFIQGCIVLQRLTDIFRRYDTDQDGWIQVSYEQYLSMVFSIV	soluble
MACKRLVPGGEIERTRRVLDLFADSGSRVIRPQQPVDVLGSEGPAKVLGQVQNNVAVQYDHMVRGIGHDTGLESDQVCRLTERGICVRELLTLVFGDKALGAEHGDIRRGHTQDAGVL	not soluble
MADERRCGVCRPLGGPRQPWPAGLLHCSSRAIFASLCMPRIVFAPAIQRHVAMPALDVGAATVAAALQAAFAREPRLRGYLLDDQGSLRRHVALFVDGVQVRDRRGLGDPLQDDSEIYVVQALSGGLEHHHHHH	not soluble
MADFDNLFDAAIARADETIRGYMGTSATITSGEQSGAVIRGVFDDPENISYAGQGVRVEGSSPSLFVRTDEVRQLRRGDTLTIGEENFWVDRVSPDDGGSCHLWLGRGVPPAVNRRR	soluble
MADKKAPAAGWPVANGEYVVGNPESCVAVITLGSHGLDQAAIDAGAAISGPCHTENLGIEKVVANYISNPNIRFMVIAGSEVQGHITGQCIKALYENGIGDDGGIIGAKGAIPFMENVGKEPVGRLQTQVVECIDLIDVEDKGKIADAIKNCISKDPGAFEEDPMVIELEGGAAAAGDEEGGLMIEGIPTVAEPDIESIKSLNEALDYKVGLMTRDLGLASGVQTETVTG	not soluble
MADLDDIKDGKDFHTDKPQTNTLFALKGCGALDWGMQSRLARIFNPKTRKTVMLAFDHGYFQGPTTGLERIDINIAPLFEYADVLMCTRGILRSVVPPAINKPVVLRASGANSILTELSNEAVAVAMDDAVRLNSCAAAAQVYIGSEHEHQSIKNIIQLIDAGLRVGMPIMAVTGVGKDMARDQRYFSLATRIAAEMGAQIIKTYYVDKGFERIAAGCPVPIVIAGGKKLPEREALEMCYQAIDQGASGVDMGRNIFQSEDPVAMIKAVHAVVHHNETAERAYELFLSEKS	not soluble
MADNKITFFGKCDGISVEQLIRYSRFNMNVKHFHNQYEIFYIIEGERQFFFDNKSYNAYAGDIAILDTNLVHTTCSISDEDKGYNRVILYIDYEKMCDFDKKYPGLNLVNYFHNNYGIYHLNEDQRIAFLNLYRDLRHELTKKNSGYQSRVEIATIYWLYKLLSLKHDSTQIHAVINSPKE	not soluble
